From article doi:10.1101/2024.02.29.582524

Key:
[1] = target: Hebeloma cylindrosporum Jps1 (HcJps1) (Hebeloma cylindrosporum); test: SEC-MALS
[2] = target: Sporisorium reilianum Jps1 (SrJps1) (Sporisorium reilianum); test: SEC-MALS
[3] = target: Sporisorium reilianum Jps1 (SrJps1) (Sporisorium reilianum); test: mass photometry
[4] = target: Ustilago maydis Jps1 lacking the unstructured C-terminus (Jps1^1-484) (Ustilago maydis); test: SEC-MALS
[5] = target: Ustilago maydis Jps1 lacking the unstructured C-terminus (Jps1^1-484) (Ustilago maydis); test: SAXS
[6] = target: Ustilago maydis Jps1, full length (Jps1^1-609) (Ustilago maydis); test: SEC-MALS
[7] = target: Ustilago maydis Jps1, full length (Jps1^1-609) (Ustilago maydis); test: mass photometry
[8] = target: Ustilago maydis Jps1^1-484 M^5 (alanine replacements of the basic cluster R162, R163, R164) (Ustilago maydis); test: SEC-MALS

Hebeloma cylindrosporum Jps1 (HcJps1) (natural protein)
stoichiometry N [1]: 2

Sporisorium reilianum Jps1 (SrJps1) (natural protein)
stoichiometry N [2]: 2 | stoichiometry N [3]: 2

Ustilago maydis Jps1 lacking the unstructured C-terminus (Jps1^1-484) (domain or fragment)
stoichiometry N [4]: 2 | stoichiometry N [5]: 2

Ustilago maydis Jps1, full length (Jps1^1-609) (natural protein)
stoichiometry N [6]: 2 | percent of particles in the dimer fraction (125 kDa) [7]: 69% | percent of particles in the monomer fraction (64 kDa) [7]: 9% | stoichiometry N [7]: 2

Ustilago maydis Jps1^1-484 M^5 (alanine replacements of the basic cluster R162, R163, R164) (domain or fragment)
stoichiometry N [8]: 2
